Assay results published in PMC8514121 (Science signaling, 2020).

T1: Aurora A kinase domain (residues 116 to 389) (human, UniProt O14965 116-389)
T1 sequence (looked up): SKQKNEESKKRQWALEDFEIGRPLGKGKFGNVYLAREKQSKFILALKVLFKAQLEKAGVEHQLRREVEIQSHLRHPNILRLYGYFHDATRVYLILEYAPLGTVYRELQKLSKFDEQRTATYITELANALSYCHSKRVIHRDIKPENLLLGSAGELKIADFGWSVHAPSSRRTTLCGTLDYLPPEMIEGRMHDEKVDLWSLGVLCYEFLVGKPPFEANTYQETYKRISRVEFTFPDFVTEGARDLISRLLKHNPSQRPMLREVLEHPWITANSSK


Legend:
[1] = target: T1, Aurora A kinase domain (residues 116 to …); assay: crystal structure
crystal structure = target: the molecule itself; assay: crystal structure
cross-linking = target: the molecule itself; assay: cross-linking

Binder	binding result (crystal structure)	other results
SYSYDAPSDFINFS (domain or fragment, UniProt Q9ULW0 7-20, looked up) [TPX2 fragment (residues 7 to 20)]		binding result [1]: binds
CoAlated unphosphorylated C247V + C319V t-Aurora A (domain or fragment, UniProt Q9ULW0 7-20, looked up, coenzyme A disulfide adduct (CoAlation) on Cys290 on approximately two thirds of the protein; unphosphorylated) SYSYDAPSDFINFSSKQKNEESKKRQWALEDFEIGRPLGKGKFGNVYLAREKQSKFILALKVLFKAQLEKAGVEHQLRREVEIQSHLRHPNILRLYGYFHDATRVYLILEYAPLGTVYRELQKLSKFDEQRTATYITELANALSYVHSKRVIHRDIKPENLLLGSAGELKIADFGWSVHAPSSRRTTLCGTLDYLPPEMIEGRMHDEKVDLWSLGVLVYEFLVGKPPFEANTYQETYKRISRVEFTFPDFVTEGARDLISRLLKHNPSQRPMLREVLEHPWITANSSK	binds	
t-Aurora A C247V + C319V double mutant, unphosphorylated, catalytically active (used for the disulfide homodimer) (domain or fragment, UniProt Q9ULW0 7-20, looked up) SYSYDAPSDFINFSSKQKNEESKKRQWALEDFEIGRPLGKGKFGNVYLAREKQSKFILALKVLFKAQLEKAGVEHQLRREVEIQSHLRHPNILRLYGYFHDATRVYLILEYAPLGTVYRELQKLSKFDEQRTATYITELANALSYVHSKRVIHRDIKPENLLLGSAGELKIADFGWSVHAPSSRRTTLCGTLDYLPPEMIEGRMHDEKVDLWSLGVLVYEFLVGKPPFEANTYQETYKRISRVEFTFPDFVTEGARDLISRLLKHNPSQRPMLREVLEHPWITANSSK		binding result (cross-linking): binds
t-Aurora A C247V + D256N + C319V kinase-dead mutant (Cys290-Cys290 disulfide homodimer) (domain or fragment, UniProt Q9ULW0 7-20, looked up, disulfide bond between Cys290 of the two monomers) SYSYDAPSDFINFSSKQKNEESKKRQWALEDFEIGRPLGKGKFGNVYLAREKQSKFILALKVLFKAQLEKAGVEHQLRREVEIQSHLRHPNILRLYGYFHDATRVYLILEYAPLGTVYRELQKLSKFDEQRTATYITELANALSYVHSKRVIHRNIKPENLLLGSAGELKIADFGWSVHAPSSRRTTLCGTLDYLPPEMIEGRMHDEKVDLWSLGVLVYEFLVGKPPFEANTYQETYKRISRVEFTFPDFVTEGARDLISRLLKHNPSQRPMLREVLEHPWITANSSK	binds	
